Reference: the supplement of paper PMC12764529
± gives the half width of the 95% confidence interval.

Columns and labels:
[1] = folding stability dG unfold from trypsin proteolysis; higher = more stable
In short: (§1)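 Designed mini-proteins with no cysteine and under 80 residues were kept only if AlphaFold2 dimer inter-PAE was above 15. In a PA-tagged cDNA display construct, they were digested with trypsin and chymotrypsin and then sequenced. K50 was inferred by Bayesian fitting of counts, and unfolding free energy was derived per protease or combined against a sequence-predicted unfolded-state K50 and a shared folded-state K50.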

[2] = folding stability dG unfold from chymotrypsin proteolysis; higher = more stable
In short: as §1

[3] = folding stability dG unfold (combined trypsin and chymotrypsin); higher = more stable
In short: as §1

SAGGFLENLPDEVVEAALAAVLPDGSRVFVALRKGPDRPRVLIITFDANGVPRDIRELDPEEALKALEASAG [r5_73_TrMRF]
folding stability dG unfold [1]: 2.48 ± 0.042 kcal/mol
folding stability dG unfold [2]: 2.75 ± 0.028 kcal/mol
folding stability dG unfold [3]: 2.68 ± 0.034 kcal/mol

SAGGFRIERDGDYLRIEIRVNDPPGQPVEEAKNIMKQLFGFKDIKVDEIEPNPNGQAEIEIEIPFPKSAGGS [r16_234_TrROS]
folding stability dG unfold [1]: 0.658 ± 0.13 kcal/mol
folding stability dG unfold [2]: -0.3 ± 0.29 kcal/mol
folding stability dG unfold [3]: 0.393 ± 0.12 kcal/mol

SAGGFTIEELAEKFPNVEVYVQRFGNKYLIQFEFEDKDRKYQVVIKYDGPGKIDIKVMPPNQDAEEALSAGG [r13_859_TrROS]
folding stability dG unfold [1]: 2.1 ± 0.069 kcal/mol
folding stability dG unfold [2]: 3.094 ± 0.019 kcal/mol
folding stability dG unfold [3]: 2.8 ± 0.072 kcal/mol

SAGGFVTFKAPPVLIEAFKKAGLTPSEAKTLLLPVKFGDKEVVVEVTFYPETGEVKVKVLSFGTEFEAESAG [r5_545_TrMRF]
folding stability dG unfold [1]: 2.22 ± 0.069 kcal/mol
folding stability dG unfold [2]: 3.38 ± 0.04 kcal/mol
folding stability dG unfold [3]: 3.07 ± 0.13 kcal/mol

SAGGGAPNKPVGKETFTVKIGDKWVKVEVTHYATSGTAEVKVTGPNGGPLGTFTVKIDPEKGGVYFGSAGGS [r16_798_TrMRF]
folding stability dG unfold [1]: 0.728 ± 0.056 kcal/mol
folding stability dG unfold [2]: 2.44 ± 0.074 kcal/mol
folding stability dG unfold [3]: 2.11 ± 0.14 kcal/mol

SAGGGFDIITITFGGIPITLTLEGEEEVKKFIEELPKLGIKTEILEKEKKIGPDGKPYVEVKVKAIPSAGGS [r8_336_JUSTAS]
folding stability dG unfold [1]: 0.299 ± 0.13 kcal/mol
folding stability dG unfold [2]: 1.43 ± 0.14 kcal/mol
folding stability dG unfold [3]: 1.19 ± 0.16 kcal/mol

SAGGGHMMPNITVDVEEEVFTLPDGSILTRTTVTVTLPNGKKTTVETEYFYDTKTGTVSSKVVKVEASAGGS [r16_166_JUSTAS]
folding stability dG unfold [1]: 2.72 ± 0.11 kcal/mol
folding stability dG unfold [2]: 3.45 ± 0.082 kcal/mol
folding stability dG unfold [3]: 3.17 ± 0.1 kcal/mol

SAGGGISIVSGDPEITPEKAEAIAAELAAILEEKGFTPKDAELARLPGGRILVTITVDDGKPIVFSLSAGGS [r8_485_TrMRF]
folding stability dG unfold [1]: 1.77 ± 0.041 kcal/mol
folding stability dG unfold [2]: 1.15 ± 0.019 kcal/mol
folding stability dG unfold [3]: 1.49 ± 0.028 kcal/mol

SAGGGKKTKYVLLTFNPKEVKAEDLEKEILKKGAEIYIGDKPIDPGKGVKEVMKANPNTTFLVKIYDSAGGS [r8_38_TrMRF]
folding stability dG unfold [1]: 1.11 ± 0.11 kcal/mol
folding stability dG unfold [2]: 1.61 ± 0.42 kcal/mol
folding stability dG unfold [3]: 1.12 ± 0.32 kcal/mol

SAGGGKLFVTEDAVLLELLYPETGEPYLAVFNPPTGLVTVYFPNRLKALFKIDPDGNLTLVKIEPANSAGGS [r16_127_TrMRF]
folding stability dG unfold [1]: 2.06 ± 0.093 kcal/mol
folding stability dG unfold [2]: 2.979 ± 0.028 kcal/mol
folding stability dG unfold [3]: 2.69 ± 0.078 kcal/mol

SAGGGKTVEVTIEVPGENAVVYIKVYDKDKPISVFPAEFIPPTGTATFTIDVPEDAEITAEVALPEEASAGG [r13_977_TrMRF]
folding stability dG unfold [1]: 0.106 ± 0.033 kcal/mol
folding stability dG unfold [2]: 0.904 ± 0.14 kcal/mol
folding stability dG unfold [3]: 0.687 ± 0.091 kcal/mol

SAGGGLALRLEVETERVEREVFDADGRLVAREEVEVRRVRLELVPLPPAPPPPTVTVRPGDPRDPRLRSAGG [r13_508_TrROS_Hall]
folding stability dG unfold [1]: 1.53 ± 0.13 kcal/mol
folding stability dG unfold [2]: 3.18 ± 0.04 kcal/mol
folding stability dG unfold [3]: 2.69 ± 0.13 kcal/mol

SAGGGLGADALAKKFKELFPNAKVEKLPNGKVLFYIPETGKLIEIYDLDDEQIIKIIDPNTPKVYIISAGGS [r16_478_TrMRF]
folding stability dG unfold [1]: 1.68 ± 0.077 kcal/mol
folding stability dG unfold [2]: 0.986 ± 0.13 kcal/mol
folding stability dG unfold [3]: 1.44 ± 0.11 kcal/mol

SAGGGMEIRLTIYRVDPETGVETSVEKEVTLEEAKEIVKEIPEEGEYTVRVTRPDRPEDVSPEELKLLSAGG [r13_254_JUSTAS]
folding stability dG unfold [1]: 0.246 ± 0.11 kcal/mol
folding stability dG unfold [2]: -0.0215 ± 0.16 kcal/mol
folding stability dG unfold [3]: 0.192 ± 0.073 kcal/mol

SAGGGMESRTLTLPKEEIEKVKEEIKKASNLDIKVTTKKLPNGEYELTITFSNPEDVEKFEKKLGIESAGGS [r16_172_JUSTAS]
folding stability dG unfold [1]: 1.99 ± 0.16 kcal/mol
folding stability dG unfold [2]: 3.05 ± 0.059 kcal/mol
folding stability dG unfold [3]: 2.71 ± 0.15 kcal/mol

SAGGGMLEVTREPSPDGVTRYVVTVPADRTVTVTRPDGTTTTTAAPDADAVITYTVPPGTPVAVSLTPSAGG [r13_82_JUSTAS]
folding stability dG unfold [1]: 0.555 ± 0.03 kcal/mol
folding stability dG unfold [2]: -0.524 ± 0.28 kcal/mol
folding stability dG unfold [3]: 0.207 ± 0.092 kcal/mol

SAGGGMMVLKVSQPVLLLSTVTLPNGFPKFLPVSPLSLETTVTFTGSDQDAEELAAELKAQGATVTEESAGG [r13_452_JUSTAS]
folding stability dG unfold [1]: 0.585 ± 0.025 kcal/mol
folding stability dG unfold [2]: 0.719 ± 0.12 kcal/mol
folding stability dG unfold [3]: 0.715 ± 0.078 kcal/mol

SAGGGMMWTVTFYPKETDTPITFPVPKEYITEIDEENNKIVIKKPPGETIEITDFNKIKSIEITPLPSAGGS [r8_111_JUSTAS]
folding stability dG unfold [1]: 0.541 ± 0.04 kcal/mol
folding stability dG unfold [2]: 0.528 ± 0.18 kcal/mol
folding stability dG unfold [3]: 0.586 ± 0.15 kcal/mol
